Reference: patent publication US20250034222A1, “IL-38 VARIANTS” (Monash University, priority 2021, published 2025)
Substitutions are numbered along the chain they refer to. In names and notes the source's numbering stands. Entries after “also recorded” stand apart in the source; their conditions may differ.

Key:
[1] = SEC analysis of monomer:dimer proportion of IL-38 variants upon purification; format: physicochemical; conditions: for capacity to form a homodimer / monomer: SEC upon purification, FIG. 11
Method: Recombinant IL-38 variants were expressed in BL21-CodonPlus(DE3)-RIL cells (Stratagene) by 0.5 mM IPTG induction (OD600 0.8) overnight at 18° C. Cells expressing IL-38 variants were lysed by sonication in 50 mM Tris-HCl (pH 8.0), 500 mM NaCl, 3 mM β-mercaptoethanol, and 30 mM imidazole. Cells were clarified by centrifugation, filtered through a 0.8 μm membrane, and bound to Ni-NTA resin (Qiagen) for 1 hour at 4° C. on a rotating platform. The resin was washed with 300 ml of 50 mM Tris-HCl (pH 8.0), 500 mM NaCl, 3 mM β-mercaptoethanol, and 30 mM imidazole. The protein was eluted from the Ni-NTA resin (Qiagen) in a buffer containing 50 mM Tris-HCl (pH 8.0), 500 mM NaCl, 3 mM β-mercaptoethanol, and 400 mM imidazole. Protein was further purified on a Superdex 75 Increase 10/300 GL column (Cytiva Life Sciences) in 10 mM HEPES (pH 7.2), 150 mM NaCl, and 2 mM DTT.
The number and elution volume of the elution peaks are indicative of whether the size of the recombinant protein corresponds to monomeric or dimeric IL-38 conformations or both conformations. The proportion of monomer: dimer for each mutant (FIGS. 9 and 11) were calculated by comparing the area under the monomer and dimer peaks from three individual purifications.

[2] = Analytical SEC of IL-38 variants upon extended incubation; format: physicochemical; conditions: 0.165 mg/ml, 37° C., 16 hours, Sorensen's phosphate buffer pH 7.0, 5% glycerol
Method: To examine the monomer-dimer equilibrium upon extended incubation, indicated IL-38 variants (residues 3-152, C-terminal His6 tag) were incubated at 0.165 mg/ml and 37° C. for 16 hours in Sorensen's phosphate buffer (0.13 M, pH 7.0) with 5% (v/v) glycerol. The monomer: dimer proportion was examined by analytical SEC on a Superdex 75 Increase 10/300 GL column (Cytiva Life Sciences).

[3] = tested on: IRF3/7; assay: Poly (I:C)-induced IRF3/7 Quanti-Luc in A549-Dual reporter cells; format: cell-based, Human; conditions: 1 ng/ml Poly (I:C) LMW, 100 nM/l to 100 fM/l variant, 20 h, dexamethasone 5 nM benchmark
Method: FIG. 17: IL-38-Fc reduces Poly (I:C)-induced IRF3/7 Quanti-Luc in Human NF-kB-SEAP & IRFLuc Reporter A549-Dual cells from Invivogen (lung epithelial cells). A549-Dual cells were pretreated for 1 h with lipofectamine and (1 ng/ml) Poly (I:C) low molecular weight (LMW) and then stimulated dose dependently (A) 100 nM/l, (B) 1 nM/l, (C) 10 pM/l, (D) 100 fM/l with different IL-38 variants or dexamethasone (5 nM) as benchmark for 20 h. […]
6 μl of A549 Dual cell supernatants or plain stimulation media (background control) and 15 μl of QUANTI-Luc™ solution (InvivoGen) were added to a 384-well plate (Opti-plate-384, PerkinElmer, #6007290) and immediately measured as per manufacturer's instructions. After background subtraction, the %-change in luciferase activity of IL-38 variants (1 nm/l)+Poly (I:C) treated conditions over poly (I:C)+vehicle-treated cells were calculated ([…] of cells treated with poly (I:C)+vehicle=100%).

[4] = SEC, area under monomer and dimer peaks

B1: ΔT53: Locked homodimer IL-38 variant, T53 deleted (protein, UniProt Q8WWZ1 1-152, looked up, variant T53*)
Interleukin-1 family member 10: MCSLPMARYYIIKYADQKALYTRDGQLLVGDPVADNCCAEKICILPNRGLARKVPIFLGIQGGSRCLACVETEEGPSLQLEDVNIEELYKGGEEATRFTFFQSSSGSAFRLEAAAWPGWFLCGPAEPQQPVQLTKESEPSARTKFYFEQSW
capacity to form a homodimer / monomer [1]: stable locked dimer
monomer-dimer equilibrium upon extended incubation [2]: stable as a dimer
reduction in poly (I:C)-induced IRF3/7 (Quanti-Luc) [3]: only marginal reduction

B2: IL-38 (A51D): Variant of IL-38 that forms monomer; SNP rs6743376, mutation at residue 51 (A51D), residues 3-152 (protein)
chain: SLPMARYYIIKYADQKALYTRDGQLLVGDPVADNCCAEKICILPNRGLDRTKVPIFLGIQGGSRCLACVETEEGPSLQLEDVNIEELYKGGEEATRFTFFQSSSGSAFRLEAAAWPGWFLCGPAEPQQPVQLTKESEPSARTKFYFEQSW
capacity to form a homodimer / monomer [1]: reduced capacity to form a homodimer
monomer-dimer equilibrium upon extended incubation [2]: more stable monomer; also recorded: stable monomer

B3: WT IL-38: Wild-type IL-38, residues 3-152, alanine at position 51 (called D51A) (protein)
chain: B2 chain with D49A
dimer formed upon purification [1, 4]: ~20%
monomer upon purification [1, 4]: ~80%
monomer-dimer equilibrium upon extended incubation [2]: slow equilibrium between the two states
reduction in poly (I:C)-induced IRF3/7 (Quanti-Luc) [3]: slightly less potent than A51D (non-fused) IL-38

B4: V55T: Variant of IL-38 V55T with increased capacity to form monomer, residues 3-152 (protein)
chain: B2 chain with D49A, V53T
capacity to form a homodimer / monomer [1]: reduced capacity to form a homodimer

B5: T53N: Variant of IL-38 T53N with increased capacity to form monomer, residues 3-152 (protein)
chain: B2 chain with D49A, T51N
capacity to form a homodimer / monomer [1]: reduced capacity to form a homodimer

B6: V55Q: Variant of IL-38 V55Q with increased capacity to form monomer, residues 3-152 (protein)
chain: B2 chain with D49A, V53Q
capacity to form a homodimer / monomer [1]: reduced capacity to form a homodimer
